According to US20080267953A1 (Kyowa Kirin, published 2008):

Legend:
[1] = target: T1, polypeptide encoded by the human PERP gene, endogenously expressed on human cancer cell lines (PC9 / PC-9, … (human, UniProt Q96FX8 1-193)); assay: flow cytometry on PC9 cells expressing PERP
T1 construct: Four-transmembrane protein of 193 amino acids; also called hPERP; THW

[2] = target: T1, polypeptide encoded by the human PERP …; assay: flow cytometry on Colo 205 cells
[3] = target: T2, human PERP with C-terminal myc-His tag expressed on CHO/DG44 cells from plasmid pcPERPmH (human, UniProt Q96FX8 1-193); assay: FMAT fluorescent cell staining, hybridoma culture supernatant, PERP/CHO against CHO/DG44 cells
T2 construct: The gene was cloned from plasmid HEMBA 1006335 (GenBank AK 074585); also called PERP/CHO cell; CHO/hPERP
Description: With regard to the cells for the assay, PERP/CHO cells and CHO/DG44 cells produced in (1) of Reference Example 1 were used. The cells which were cultured on an Iscove's Modified Dulbecco's medium containing 10% fetal bovine serum (manufactured by Invitrogen) for 2 to 3 days and peeled off with a Tripsin-EDTA solution (manufactured by Invitrogen) were suspended on the same medium, seeded onto a black 96-well plates for FMAT at 7×10³ cells/100 μL medium/well and cultured overnight. Mouse anti-serum to be immunized or cultured supernatant of hybridoma cells was dispensed into the plate at 5 μL/well as a primary antibody, and ALEXA 647-labeled anti-mouse immunoglobulin G (H+ L) (manufactured by Molecular Probe) was dispensed at 50 μL/well as a secondary antibody, and the plate was allowed to stand for 4 hours under shading the light. Wavelength of 650 to 685 nm excited by laser beam of 633 nm He/Ne was measured by an FMAT 8100 HTS system (manufactured by Applied Biosystem).

[4] = target: T1, polypeptide encoded by the human PERP …; assay: flow cytometry on PC-9 cells
Description: (§1) Binding activity of an anti-PERP humanized antibody having no consensus sequence of an N-linked sugar chain purified in (5) of Example 3 to CHO/PERP (KC1359) expressing a polypeptide encoded by the PERP gene, or PC9 cells used in (1) of Example 1 was measured using a fluorescent antibody technique as described below.
CHO/PERP or PC9 cells (2 to 3×10⁵ per well) were dispensed in a 96-well U-shaped plate, a modified antibody wherein the anti-PERP humanized antibody having no consensus sequence of an N-linked sugar chain was diluted in eight stages in a 2-fold dilution starting from 10 μg/ml using a buffer for FCM (1% BSA-PBS, 0.02% EDTA and 0.05% NaN₃) was dispensed in an amount of 100 μL/well or the modified antibody diluted in eight stages in a 5-fold dilution starting from 10 μg/ml and a reaction was carried out on ice for 30 minutes. After washing with a buffer for FCM once, a solution in which a PE-labeled anti-human IgG (H+ L) antibody (manufactured by Beckmann-Coulter) diluted 50-fold with a buffer for FCM was added thereto in an amount of 100 μL/well. After the mixture was allowed to react for 30 minutes on ice protecting from the light, it was washed with a buffer for FCM twice and fluorescence intensity was measured using a flow cytometer. […]

[5] = target: T2, human PERP with C-terminal myc-His tag …; assay: flow cytometry on CHO/PERP (KC1359)
Description: as §1
CHO/PERP or PC9 cells (2 to 3×10⁵ per well) were dispensed in a 96-well U-shaped plate, a modified antibody wherein the anti-PERP humanized antibody having no consensus sequence of an N-linked sugar chain was diluted in eight stages in a 2-fold dilution starting from 10 μg/ml using a buffer for FCM (1% BSA-PBS, 0.02% EDTA and 0.05% NaN₃) was dispensed in an amount of 100 μL/well or the modified antibody diluted in eight stages in a 5-fold dilution starting from 10 μg/ml and a reaction was carried out on ice for 30 minutes. After washing with a buffer for FCM once, a solution in which a PE-labeled anti-human IgG (H+ L) antibody (manufactured by Beckmann-Coulter) diluted 50-fold with a buffer for FCM was added thereto in an amount of 100 μL/well. After the mixture was allowed to react for 30 minutes on ice protecting from the light, it was washed with a buffer for FCM twice and fluorescence intensity was measured using a flow cytometer. As a positive control, the anti-PERP human chimeric antibody KM3481 described in Reference Example 2 or the anti-PERP human chimeric antibody KM3821 (KM3821) having no consensus sequence of an N-linked sugar chain produced in Example 1 was used.

binding result [1]	binding result [5]	Binder	further results
binds		anti-PERP CDR-modified antibody ver.1 (antibody, V domains shown, Human chimeric antibody of IgG class; also called pKANTEX3411 CDR v1) VH: DVQLQESGPGLVKPSQSLSLTCTVTGFSITTEYAWNWIRQFPGNRLEWMGYIGYTGRTSYSPSLKSRISITRDTSKNQFFLQLNSVTTEDTATYYCTRMDYWGQGTSVTVSS VL: QIVLIQSPVIMSASPGEKVTITCSASSSVSYMHWFQQKPGTSPKLWIYSTSNLASGVPARFSGSGSGTSYSLTISRMEAEDAATYYCQQRSSYPPTFGAGTKLELK	
binds		anti-PERP CDR-modified antibody ver.5 (antibody, V domains shown, Human chimeric antibody of IgG class; also called pKANTEX3411 CDR v5) VH: DVQLQESGPGLVKPSQSLSLTCTVTGFSITTEYAWNWIRQFPGNRLEWMGYIGYTGRTSYAPSLKSRISITRDTSKNQFFLQLNSVTTEDTATYYCTRMDYWGQGTSVTVSS VL: QIVLIQSPVIMSASPGEKVTITCSASSSVSYMHWFQQKPGTSPKLWIYSTSNLASGVPARFSGSGSGTSYSLTISRMEAEDAATYYCQQRSSYPPTFGAGTKLELK	
binds		anti-PERP CDR-modified antibody ver.2 (antibody, V domains shown, Human chimeric antibody of IgG class; also called pKANTEX3411 CDR v2) VH: DVQLQESGPGLVKPSQSLSLTCTVTGFSITTEYAWNWIRQFPGNRLEWMGYIGYTGRTGYSPSLKSRISITRDTSKNQFFLQLNSVTTEDTATYYCTRMDYWGQGTSVTVSS VL: QIVLIQSPVIMSASPGEKVTITCSASSSVSYMHWFQQKPGTSPKLWIYSTSNLASGVPARFSGSGSGTSYSLTISRMEAEDAATYYCQQRSSYPPTFGAGTKLELK	
		anti-PERP mouse monoclonal antibody KM3411 (hybridoma FERM BP-8643) (antibody, V domains shown, Mouse IgG1; also called anti-PERP mouse antibody KM3411) VH: DVQLQESGPGLVKPSQSLSLTCTVTGFSITTEYAWNWIRQFPGNRLEWMGYIGYTGRTNYSPSLKSRISITRDTSKNQFFLQLNSVTTEDTATYYCTRMDYWGQGTSVTVSS VL: QIVLIQSPVIMSASPGEKVTITCSASSSVSYMHWFQQKPGTSPKLWIYSTSNLASGVPARFSGSGSGTSYSLTISRMEAEDAATYYCQQRSSYPPTFGAGTKLELK	binding result [2]: binds; binding result [3]: binds
binds		anti-PERP CDR-modified antibody ver.3 (antibody, V domains shown, Human chimeric antibody of IgG class; also called pKANTEX3411 CDR v3) VH: DVQLQESGPGLVKPSQSLSLTCTVTGFSITTEYAWNWIRQFPGNRLEWMGYIGYTGRTYYSPSLKSRISITRDTSKNQFFLQLNSVTTEDTATYYCTRMDYWGQGTSVTVSS VL: QIVLIQSPVIMSASPGEKVTITCSASSSVSYMHWFQQKPGTSPKLWIYSTSNLASGVPARFSGSGSGTSYSLTISRMEAEDAATYYCQQRSSYPPTFGAGTKLELK	
binds		anti-PERP CDR-modified antibody ver.6 (antibody, V domains shown, Human chimeric antibody of IgG class; also called pKANTEX3411 CDR v6) VH: DVQLQESGPGLVKPSQSLSLTCTVTGFSITTEYAWNWIRQFPGNRLEWMGYIGYTGRTGYAPSLKSRISITRDTSKNQFFLQLNSVTTEDTATYYCTRMDYWGQGTSVTVSS VL: QIVLIQSPVIMSASPGEKVTITCSASSSVSYMHWFQQKPGTSPKLWIYSTSNLASGVPARFSGSGSGTSYSLTISRMEAEDAATYYCQQRSSYPPTFGAGTKLELK	
	binds	anti-PERP humanized antibody HV4LV4 (antibody, V domains shown) VH: QVQLQESGPGLVKPSQTLSLTCTVSGFSISTEYAWNWIRQFPGKGLEWIGYIGYTGRTNYAPSLKSRITISRDTSKNQFSLQLSSVTAEDTATYYCTRMDYWGQGTLVTVSS VL: DIQMTQSPSSLSASVGDRVTITCSASSSVSYMHWFQQKPGKAPKLWIYSTSNLASGVPSRFSGSGSGTDYTLTISSMQPEDFATYYCQQRSSYPPTFGQGTKVEIK	binding result [4]: binds
	binds	anti-PERP humanized antibody HV4LV7 (antibody, V domains shown) VH: QVQLQESGPGLVKPSQTLSLTCTVSGFSISTEYAWNWIRQFPGKGLEWIGYIGYTGRTNYAPSLKSRITISRDTSKNQFSLQLSSVTAEDTATYYCTRMDYWGQGTLVTVSS VL: DIVMIQSPSSLSASVGDRVTITCSASSSVSYMHWFQQKPGKSPKLWIYSTSNLASGVPSRFSGSGSGTDYTLTISSMQPEDFATYYCQQRSSYPPTFGQGTKVEIK	
	binds	anti-PERP humanized antibody HV8LV7 (antibody, V domains shown) VH: QVQLQESGPGLVKPSQTLSLTCTVSGFSITTEYAWNWIRQFPGNRLEWMGYIGYTGRTNYAPSLKSRITISRDTSKNQFSLQLSSVTAEDTATYYCTRMDYWGQGTLVTVSS VL: DIVMIQSPSSLSASVGDRVTITCSASSSVSYMHWFQQKPGKSPKLWIYSTSNLASGVPSRFSGSGSGTDYTLTISSMQPEDFATYYCQQRSSYPPTFGQGTKVEIK	
		anti-PERP humanized antibody HV8LV0 (antibody, V domains shown) VH: QVQLQESGPGLVKPSQTLSLTCTVSGFSITTEYAWNWIRQFPGNRLEWMGYIGYTGRTNYAPSLKSRITISRDTSKNQFSLQLSSVTAEDTATYYCTRMDYWGQGTLVTVSS VL: DIQMTQSPSSLSASVGDRVTITCSASSSVSYMHWYQQKPGKAPKLLIYSTSNLASGVPSRFSGSGSGTDFTLTISSLQPEDFATYYCQQRSSYPPTFGQGTKVEIK	binding activity relative to KM3821 [5]: ~0.2 fraction of the binding activity of KM3821
	binds	anti-PERP humanized antibody HV4LV3 (antibody, V domains shown) VH: QVQLQESGPGLVKPSQTLSLTCTVSGFSISTEYAWNWIRQFPGKGLEWIGYIGYTGRTNYAPSLKSRITISRDTSKNQFSLQLSSVTAEDTATYYCTRMDYWGQGTLVTVSS VL: DIQMTQSPSSLSASVGDRVTITCSASSSVSYMHWYQQKPGKAPKLWIYSTSNLASGVPSRFSGSGSGTDYTLTISSMQPEDFATYYCQQRSSYPPTFGQGTKVEIK	
